Results on one substance are retold here after paper PMC4916044.

This assay deals with endogenous NFκB2 p100 (mouse (endogenous in NFκB2+/+ MEFs)) (UniProt Q9WTK5). Description: immunodepletion.
UniProt Q9WTK5, sequence (Q9WTK5 whole entry): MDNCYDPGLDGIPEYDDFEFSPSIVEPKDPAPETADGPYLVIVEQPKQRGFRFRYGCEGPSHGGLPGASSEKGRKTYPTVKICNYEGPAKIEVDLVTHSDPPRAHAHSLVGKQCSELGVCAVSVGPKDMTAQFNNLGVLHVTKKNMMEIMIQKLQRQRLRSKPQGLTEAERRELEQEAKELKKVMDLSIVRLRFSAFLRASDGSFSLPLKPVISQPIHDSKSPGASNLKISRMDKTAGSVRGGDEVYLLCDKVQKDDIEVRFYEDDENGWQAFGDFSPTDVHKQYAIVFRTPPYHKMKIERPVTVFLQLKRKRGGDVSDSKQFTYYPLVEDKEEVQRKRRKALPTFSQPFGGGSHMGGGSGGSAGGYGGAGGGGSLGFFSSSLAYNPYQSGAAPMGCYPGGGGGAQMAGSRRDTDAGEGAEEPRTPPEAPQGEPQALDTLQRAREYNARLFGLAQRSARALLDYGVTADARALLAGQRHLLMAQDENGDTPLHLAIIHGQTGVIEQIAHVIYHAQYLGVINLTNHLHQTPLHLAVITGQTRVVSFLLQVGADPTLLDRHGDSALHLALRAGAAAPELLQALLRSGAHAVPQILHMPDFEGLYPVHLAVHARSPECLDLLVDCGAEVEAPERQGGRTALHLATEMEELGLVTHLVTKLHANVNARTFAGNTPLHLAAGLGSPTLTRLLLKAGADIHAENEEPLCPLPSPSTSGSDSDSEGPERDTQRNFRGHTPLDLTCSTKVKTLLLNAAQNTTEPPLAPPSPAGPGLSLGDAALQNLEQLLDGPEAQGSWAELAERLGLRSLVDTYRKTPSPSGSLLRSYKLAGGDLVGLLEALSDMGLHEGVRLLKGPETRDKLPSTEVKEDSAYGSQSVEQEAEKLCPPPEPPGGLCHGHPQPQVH

Consider “endogenous ERK2 (from UniProt P63085 1-358) (natural protein)”, for which the percent of endogenous ERK2 pulled down with p100 (immunodepletion) was found to be 46%.
